Data on 12 molecules can be found in patent US20230303698A1 (published 2023).

One assay deals with human CLDN18.2. The experiment in a line: FACS binding to NUGC-4 cells.
Assay [1] deals with T1, human PD-L1 (human, UniProt Q9NZQ7 19-290). As to the kind of experiment: FACS. On the technique in general: A flow cytometer gives signals particle by particle.
In assay [2] the target is T2, human 4-1BB (human, UniProt Q07011 24-255). As to the kind of experiment: FACS.
In a further assay the target is T3, human OX40 (human, UniProt P43489 29-277).
T3 chain: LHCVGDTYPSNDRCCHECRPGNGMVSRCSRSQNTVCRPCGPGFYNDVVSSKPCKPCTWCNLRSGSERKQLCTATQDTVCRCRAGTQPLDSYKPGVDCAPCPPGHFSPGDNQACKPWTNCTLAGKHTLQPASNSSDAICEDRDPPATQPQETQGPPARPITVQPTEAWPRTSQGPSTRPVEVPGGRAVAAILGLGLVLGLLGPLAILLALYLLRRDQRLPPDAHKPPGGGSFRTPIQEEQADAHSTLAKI
As to the kind of experiment: FACS.

The target in assay [3] is T1, human PD-L1. The experiment in a line: FACS binding to CHO-K1/hPD-L1 cells.
For another assay, the target named is T4, cynomolgus monkey 4-1BB (cynomolgus monkey).
T4 chain: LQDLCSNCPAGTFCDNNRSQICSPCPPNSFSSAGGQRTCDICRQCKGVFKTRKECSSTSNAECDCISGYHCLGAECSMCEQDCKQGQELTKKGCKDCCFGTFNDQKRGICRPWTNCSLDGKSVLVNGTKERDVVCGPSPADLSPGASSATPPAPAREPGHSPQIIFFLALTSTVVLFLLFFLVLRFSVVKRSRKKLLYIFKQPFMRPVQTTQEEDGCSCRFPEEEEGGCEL
As to the kind of experiment: FACS.

Assay [4] deals with T5, cynomolgus monkey OX40-His protein (cynomolgus monkey).
T5 chain: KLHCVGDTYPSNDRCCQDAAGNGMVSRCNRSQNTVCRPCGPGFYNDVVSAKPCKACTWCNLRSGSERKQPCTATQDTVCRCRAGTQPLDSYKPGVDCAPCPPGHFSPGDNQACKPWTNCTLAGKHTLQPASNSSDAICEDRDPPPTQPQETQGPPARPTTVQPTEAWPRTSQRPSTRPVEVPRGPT
As to the kind of experiment: ELISA. (In general: An ELISA detects its analyte on a solid surface through an enzyme-linked reagent.)

For assay [5], the target named is T6, human PSMA (human, UniProt Q04609 1-750). The experiment in a line: FACS binding to LNCaP cells.
The target in assay [6] is T2, human 4-1BB. As to the kind of experiment: FACS. The source holds these as a separate data set.
The target of assay [7] is T6, human PSMA. The experiment in a line: FACS binding to LNCaP cells. The source holds these as a separate data set.

As usually defined, the EC50 is the concentration at which the effect is half-maximal.

Where two headings read alike, the source gives them in different places.

T6 sequence (Q04609 whole entry): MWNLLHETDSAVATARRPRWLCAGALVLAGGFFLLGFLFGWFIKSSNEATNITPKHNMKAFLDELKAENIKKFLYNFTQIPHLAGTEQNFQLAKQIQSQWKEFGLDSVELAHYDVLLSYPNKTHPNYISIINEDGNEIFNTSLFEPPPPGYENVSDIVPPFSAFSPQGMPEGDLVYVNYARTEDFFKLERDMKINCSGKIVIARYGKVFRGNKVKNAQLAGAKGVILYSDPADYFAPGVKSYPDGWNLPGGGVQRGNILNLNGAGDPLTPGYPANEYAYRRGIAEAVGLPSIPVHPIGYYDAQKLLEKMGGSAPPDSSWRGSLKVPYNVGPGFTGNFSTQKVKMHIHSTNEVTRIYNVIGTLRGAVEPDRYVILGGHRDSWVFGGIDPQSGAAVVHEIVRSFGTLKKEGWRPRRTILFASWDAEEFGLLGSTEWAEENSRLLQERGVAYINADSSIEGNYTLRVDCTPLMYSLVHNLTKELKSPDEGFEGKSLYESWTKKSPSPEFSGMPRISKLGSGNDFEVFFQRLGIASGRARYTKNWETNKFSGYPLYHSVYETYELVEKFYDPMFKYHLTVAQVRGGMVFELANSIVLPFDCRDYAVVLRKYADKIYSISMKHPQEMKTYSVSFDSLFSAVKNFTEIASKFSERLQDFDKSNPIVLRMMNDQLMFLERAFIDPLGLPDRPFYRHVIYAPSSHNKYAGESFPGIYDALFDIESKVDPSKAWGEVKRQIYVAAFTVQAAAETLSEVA
T1 sequence (Q9NZQ7 19-290): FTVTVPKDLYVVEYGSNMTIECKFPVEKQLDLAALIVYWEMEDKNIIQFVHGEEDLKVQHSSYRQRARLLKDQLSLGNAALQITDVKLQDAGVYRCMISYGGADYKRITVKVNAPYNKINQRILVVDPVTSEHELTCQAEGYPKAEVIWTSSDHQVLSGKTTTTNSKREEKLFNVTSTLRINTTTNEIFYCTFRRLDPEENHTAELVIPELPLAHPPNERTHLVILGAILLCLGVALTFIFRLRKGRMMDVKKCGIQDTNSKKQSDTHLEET

B1: PR002726, anti-CLDN18.2 monoclonal antibody 13E6F4 hIgG1 (antibody, V domains shown)
VH: EVQLLESGGGLVQPGGSLRLSCAASGFTFSSFVMSWVRQAPGKGLEWVSTISGSGRSTYYADSVKGRFTISRDNSKNTLHLQMNSLRAEDTAVYYCAKDAAAAGTKFDYWGQGTLVTVSS
VL: EIVLTQSPATLSLSPGERATLSCRASQSVSSYLAWYQQKPGQAPRLLIYDASNRATGIPARFSGSGSGTDFTLTISSLEPEDFAVYYCQQRSNWPLTFGGGTKVEIKR
Turning to B1, the concentration giving a half-maximal response (EC50) in the assay with human CLDN18.2 was determined as 4.98 nM.

B2: PR003549 (bispecific antibody)
light: DIQMTQSPSTLSASVGDRVTVTCRASQSIYIWLAWYQQKPGKAPNLLIYKASSLETGVPSRFSGSGSGTEFTLTISSLQPDDFATYYCQQYYGSSRTFGQGTKVEIKRTVAAPSVFIFPPSDEQLKSGTASVVCLLNNFYPREAKVQWKVDNALQSGNSQESVTEQDSKDSTYSLSSTLTLSKADYEKHKVYACEVTHQGLSSPVTKSFNRGEC
heavy: EVQLVESGGGLVQPGGSLRLSCAASGFTFSSYWMSWVRQAPGKGLEWVANIKQEGSEKYYVDSVKGRFTISRDNAKNSLYLQMNSLRAEDTAVYYCARDRAVAGAFDIWGQGTMVTVSSASTKGPSVFPLAPSSKSTSGGTAALGCLVKDYFPEPVTVSWNSGALTSGVHTFPAVLQSSGLYSLSSVVTVPSSSLGTQTYICNVNHKPSNTKVDKKVEPKSCDKTHTCPPCPAPEAAGGPSVFLFPPKPKDTLMISRTPEVTCVVVDVSHEDPEVKFNWYVDGVEVHNAKTKPREEQYNSTYRVVSVLTVLHQDWLNGKEYKCKVSNKALGAPIEKTISKAKGQPREPQVYTLPPSREEMTKNQVSLTCLVKGFYPSDIAVEWESNGQPENNYKTTPPVLDSDGSFFLYSKLTVDKSRWQQGNVFSCSVMHEALHNHYTQKSLSLSPGEPKSSDKTHTPPPPPRTEVQLLESGGGLVQLGGSLRLSCAASGFTFSRYAMTWVRQAPEKGLEWVSSISGSGDDTYYGDSVKGRFTISRDNSQNTVYLQMNSLRAEDTAVYFCAKEKAGTTGDYYYNVDVWGQGTTVTVSS
For the molecule B2, the concentration for a half-maximal effect (EC50) with human PD-L1 [1] was 1.56 nM; with human 4-1BB [2], 1.9 nM.

B3: PR003789 (bispecific antibody)
light: DIQMTQSPSTLSASVGDRVTVTCRASQSIYIWLAWYQQKPGKAPNLLIYKASSLETGVPSRFSGSGSGTEFTLTISSLQPDDFATYYCQQYYGSSRTFGQGTKVEIKRTVAAPSVFIFPPSDEQLKSGTASVVCLLNNFYPREAKVQWKVDNALQSGNSQESVTEQDSKDSTYSLSSTLTLSKADYEKHKVYACEVTHQGLSSPVTKSFNRGEC
heavy: EVQLVESGGGLVQPGGSLRLSCAASGFTFSSYWMSWVRQAPGKGLEWVANIKQEGSEKYYVDSVKGRFTISRDNAKNSLYLQMNSLRAEDTAVYYCARDRAVAGAFDIWGQGTMVTVSSASTKGPSVFPLAPSSKSTSGGTAALGCLVKDYFPEPVTVSWNSGALTSGVHTFPAVLQSSGLYSLSSVVTVPSSSLGTQTYICNVNHKPSNTKVDKKVEPKSCDKTHTCPPCPAPEAAGGPSVFLFPPKPKDTLMISRTPEVTCVVVDVSHEDPEVKFNWYVDGVEVHNAKTKPREEQYNSTYRVVSVLTVLHQDWLNGKEYKCKVSNKALGAPIEKTISKAKGQPREPQVYTLPPSREEMTKNQVSLTCLVKGFYPSDIAVEWESNGQPENNYKTTPPVLDSDGSFFLYSKLTVDKSRWQQGNVFSCSVMHEALHNHYTQKSLSLSPGAEPKSSDKTHTPPPPPEVQLLESGGGLVQPGGSLRLSCAASGFTFSSYAMSWVRQAPGKGLEWVSAISGRGGSTFYADSVRGRFTISRDNSKNTLYLQMNSLRAEDTAMYYCVDGTTGTTDVDYWGQGTLVTVSS
For B3, the values for the 50% effective concentration (EC50) with human OX40 and with human PD-L1 [3] were 3.98 nM and 1.37 nM, respectively.

B4: Anti-4-1BB monoclonal antibody utomilumab analog (antibody, V domains shown)
VH: EVQLVQSGAEVKKPGESLRISCKGSGYSFSTYWISWVRQMPGKGLEWMGKIYPGDSYTNYSPSFQGQVTISADKSISTAYLQWSSLKASDTAMYYCARGYGIFDYWGQGTLVTVSS
VL: SYELTQPPSVSVSPGQTASITCSGDNIGDQYAHWYQQKPGQSPVLVIYQDKNRPSGIPERFSGSNSGNTATLTISGTQAMDEADYYCATYTGFGSLAVFGGGTKLTVLG
Turning to B4, it took 0.485 nM to reach a half-maximal effect with cynomolgus monkey 4-1BB (EC50).

B5: Anti-OX40 monoclonal antibody vonlerolizumab analog (antibody, V domains shown)
VH: EVQLVQSGAEVKKPGASVKVSCKASGYTFTDSYMSWVRQAPGQGLEWIGDMYPDNGDSSYNQKFRERVTITRDTSTSTAYLELSSLRSEDTAVYYCVLAPRWYFSVWGQGTLVTVSS
VL: DIQMTQSPSSLSASVGDRVTITCRASQDISNYLNWYQQKPGKAPKLLIYYTSRLRSGVPSRFSGSGSGTDFTLTISSLQPEDFATYYCQQGHTLPPTFGQGTKVEIKR
In assay [4], B5 yielded an EC50 of 0.194 nM.

B6: PR003557 (bispecific antibody)
light: DIQMTQSPSSLSASIGDRVTITCRASQSINSYLNWYQQKPGKAPKLLIYTASSLLSGVPSRFSASGSWTDFSLTISSLQPEDFATYYCQQSFSTPYTFGQGTNLEIKRTVAAPSVFIFPPSDEQLKSGTASVVCLLNNFYPREAKVQWKVDNALQSGNSQESVTEQDSKDSTYSLSSTLTLSKADYEKHKVYACEVTHQGLSSPVTKSFNRGEC
heavy: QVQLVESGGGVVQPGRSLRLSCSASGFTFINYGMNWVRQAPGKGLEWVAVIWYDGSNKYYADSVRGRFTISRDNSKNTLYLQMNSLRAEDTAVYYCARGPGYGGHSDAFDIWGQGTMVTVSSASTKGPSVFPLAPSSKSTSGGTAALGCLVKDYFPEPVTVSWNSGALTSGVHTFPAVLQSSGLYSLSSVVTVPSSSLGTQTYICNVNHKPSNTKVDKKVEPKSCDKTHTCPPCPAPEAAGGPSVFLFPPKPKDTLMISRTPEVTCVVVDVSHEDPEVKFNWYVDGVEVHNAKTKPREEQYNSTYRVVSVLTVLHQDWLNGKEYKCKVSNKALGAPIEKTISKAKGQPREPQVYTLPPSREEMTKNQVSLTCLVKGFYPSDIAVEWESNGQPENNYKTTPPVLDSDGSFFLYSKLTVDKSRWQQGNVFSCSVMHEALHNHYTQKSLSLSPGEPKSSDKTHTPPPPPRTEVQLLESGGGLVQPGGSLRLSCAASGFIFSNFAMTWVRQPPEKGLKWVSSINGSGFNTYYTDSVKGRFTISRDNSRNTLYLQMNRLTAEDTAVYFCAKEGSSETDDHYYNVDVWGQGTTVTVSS
In the case of B6, the EC50 with human PSMA [5] came to 0.876 nM; with human 4-1BB [6], 0.951 nM.

B7: PR003555 (bispecific antibody)
light: DIQMTQSPSSLSASIGDRVTITCRASQSINSYLNWYQQKPGKAPKLLIYTASSLLSGVPSRFSASGSWTDFSLTISSLQPEDFATYYCQQSFSTPYTFGQGTNLEIKRTVAAPSVFIFPPSDEQLKSGTASVVCLLNNFYPREAKVQWKVDNALQSGNSQESVTEQDSKDSTYSLSSTLTLSKADYEKHKVYACEVTHQGLSSPVTKSFNRGEC
heavy: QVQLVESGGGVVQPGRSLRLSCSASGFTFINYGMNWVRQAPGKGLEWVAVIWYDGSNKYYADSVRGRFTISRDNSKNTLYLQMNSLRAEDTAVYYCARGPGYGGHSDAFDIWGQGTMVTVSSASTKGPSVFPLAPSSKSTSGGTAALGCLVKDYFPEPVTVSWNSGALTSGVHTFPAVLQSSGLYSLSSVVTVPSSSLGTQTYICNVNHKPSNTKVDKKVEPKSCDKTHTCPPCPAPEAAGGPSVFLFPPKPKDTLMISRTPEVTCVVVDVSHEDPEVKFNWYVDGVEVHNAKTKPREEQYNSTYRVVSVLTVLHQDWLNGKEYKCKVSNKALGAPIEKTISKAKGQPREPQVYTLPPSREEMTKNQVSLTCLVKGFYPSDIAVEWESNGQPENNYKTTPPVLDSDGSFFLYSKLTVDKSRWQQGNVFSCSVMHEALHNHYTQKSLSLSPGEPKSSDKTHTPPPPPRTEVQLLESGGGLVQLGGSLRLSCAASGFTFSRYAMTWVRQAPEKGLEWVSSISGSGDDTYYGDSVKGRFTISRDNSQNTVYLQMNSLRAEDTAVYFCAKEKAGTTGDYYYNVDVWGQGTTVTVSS
As to B7, the 50% effective concentration (EC50) with human PSMA [5] was 0.802 nM; with human 4-1BB [6], 0.819 nM.

B8: PR004284 (bispecific antibody)
light: DIQMTQSPSSLSASIGDRVTITCRASQSINSYLNWYQQKPGKAPKLLIYTASSLLSGVPSRFSASGSWTDFSLTISSLQPEDFATYYCQQSFSTPYTFGQGTNLEIKRTVAAPSVFIFPPSDEQLKSGTASVVCLLNNFYPREAKVQWKVDNALQSGNSQESVTEQDSKDSTYSLSSTLTLSKADYEKHKVYACEVTHQGLSSPVTKSFNRGEC
heavy: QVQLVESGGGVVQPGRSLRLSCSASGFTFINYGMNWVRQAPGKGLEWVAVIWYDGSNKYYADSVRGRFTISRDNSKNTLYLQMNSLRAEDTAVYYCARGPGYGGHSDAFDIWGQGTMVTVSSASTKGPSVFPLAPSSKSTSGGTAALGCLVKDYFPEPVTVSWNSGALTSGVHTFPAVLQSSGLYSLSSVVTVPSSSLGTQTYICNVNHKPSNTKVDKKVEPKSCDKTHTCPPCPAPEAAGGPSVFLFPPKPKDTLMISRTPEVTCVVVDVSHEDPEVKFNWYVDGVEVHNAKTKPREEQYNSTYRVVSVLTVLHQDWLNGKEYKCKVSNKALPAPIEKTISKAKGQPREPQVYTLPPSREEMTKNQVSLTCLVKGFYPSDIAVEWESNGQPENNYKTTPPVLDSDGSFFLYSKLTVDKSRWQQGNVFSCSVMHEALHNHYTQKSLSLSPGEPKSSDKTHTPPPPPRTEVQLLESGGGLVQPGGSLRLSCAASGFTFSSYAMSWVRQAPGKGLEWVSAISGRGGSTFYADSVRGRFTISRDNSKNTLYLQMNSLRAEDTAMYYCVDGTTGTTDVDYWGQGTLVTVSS
For B8, the EC50 in the assay with human OX40 is 4.96 nM; with human PSMA [7] it was 6.7 nM.

B9: PR003556 (bispecific antibody)
light: DIQMTQSPSSLSASIGDRVTITCRASQSINSYLNWYQQKPGKAPKLLIYTASSLLSGVPSRFSASGSWTDFSLTISSLQPEDFATYYCQQSFSTPYTFGQGTNLEIKRTVAAPSVFIFPPSDEQLKSGTASVVCLLNNFYPREAKVQWKVDNALQSGNSQESVTEQDSKDSTYSLSSTLTLSKADYEKHKVYACEVTHQGLSSPVTKSFNRGEC
heavy: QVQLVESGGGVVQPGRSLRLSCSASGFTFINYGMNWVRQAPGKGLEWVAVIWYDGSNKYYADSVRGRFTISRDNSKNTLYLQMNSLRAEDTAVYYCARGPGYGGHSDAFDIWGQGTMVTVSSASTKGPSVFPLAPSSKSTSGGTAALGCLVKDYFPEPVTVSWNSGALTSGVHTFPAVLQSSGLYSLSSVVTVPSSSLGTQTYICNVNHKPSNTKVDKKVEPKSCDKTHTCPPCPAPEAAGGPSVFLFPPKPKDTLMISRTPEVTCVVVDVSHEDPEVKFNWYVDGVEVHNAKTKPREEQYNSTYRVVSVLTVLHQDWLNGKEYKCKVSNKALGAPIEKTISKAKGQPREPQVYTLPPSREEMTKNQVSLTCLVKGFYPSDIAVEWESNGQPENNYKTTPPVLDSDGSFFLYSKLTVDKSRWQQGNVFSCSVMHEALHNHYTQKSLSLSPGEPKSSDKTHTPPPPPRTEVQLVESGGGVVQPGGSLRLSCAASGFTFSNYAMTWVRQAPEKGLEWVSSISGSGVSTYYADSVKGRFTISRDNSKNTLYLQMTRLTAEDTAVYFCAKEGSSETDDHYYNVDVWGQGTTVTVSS
Consider B9, for which the values for the concentration for a half-maximal effect (EC50) with human PSMA [5] and with human 4-1BB [6] were 0.687 nM and 0.476 nM, respectively.

B10: PR001758, anti-4-1BB heavy-chain antibody 1016P0010B11 (antibody, V domains shown)
VH: EVQLLESGGGLVQLGGSLRLSCAASGFTFSRYAMTWVRQAPEKGLEWVSSISGSGDDTYYGDSVKGRFTISRDNSQNTVYLQMNSLRAEDTAVYFCAKEKAGTTGDYYYNVDVWGQGTTVTVSS
For B10, in the assay with cynomolgus monkey 4-1BB, the response was half-maximal at 0.575 nM (EC50).

B11: PR001331, anti-PSMA monoclonal antibody 2E8A1B1 hIgG1 (antibody, V domains shown)
VH: QVQLVESGGGVVQPGRSLRLSCSASGFTFINYGMNWVRQAPGKGLEWVAVIWYDGSNKYYADSVRGRFTISRDNSKNTLYLQMNSLRAEDTAVYYCARGPGYGGHSDAFDIWGQGTMVTVSS
VL: DIQMTQSPSSLSASIGDRVTITCRASQSINSYLNWYQQKPGKAPKLLIYTASSLLSGVPSRFSASGSWTDFSLTISSLQPEDFATYYCQQSFSTPYTFGQGTNLEIKR
Take B11: the EC50 is 2.58 nM with human PSMA [7] and 0.702 nM in the assay with human PSMA [5].

B12: PR002067, anti-OX40 heavy-chain antibody R1026P079E12 (antibody, V domains shown)
VH: EVQLLESGGGLVQPGGSLRLSCAASGFTFSSYAMSWVRQAPGKGLEWVSAISGRGGSTFYADSVRGRFTISRDNSKNTLYLQMNSLRAEDTAMYYCVDGTTGTTDVDYWGQGTLVTVSS
Turning to B12, the EC50 with human OX40 was found to be 17.8 nM; in assay [4] it was 0.232 nM.
